# Measurements taken from patent US20140227782A1 (UMUVERSIDAD DE VALLADOLID, published 2014).
# T1: Modified biopolymer 3' (biopolymer 3, 427 amino acids, structure D-B84, with amino groups transformed into … (amino groups of the lysines of peptide D transformed into azide groups (lysine transformation rate 50%); covalently grafted to alkynyl-functionalised glass by click cycloaddition)
# T1 construct: In the assay it was grafted to a glass surface through 1,2,3-triazole links; also called POLYM; 3'
# T1 chain: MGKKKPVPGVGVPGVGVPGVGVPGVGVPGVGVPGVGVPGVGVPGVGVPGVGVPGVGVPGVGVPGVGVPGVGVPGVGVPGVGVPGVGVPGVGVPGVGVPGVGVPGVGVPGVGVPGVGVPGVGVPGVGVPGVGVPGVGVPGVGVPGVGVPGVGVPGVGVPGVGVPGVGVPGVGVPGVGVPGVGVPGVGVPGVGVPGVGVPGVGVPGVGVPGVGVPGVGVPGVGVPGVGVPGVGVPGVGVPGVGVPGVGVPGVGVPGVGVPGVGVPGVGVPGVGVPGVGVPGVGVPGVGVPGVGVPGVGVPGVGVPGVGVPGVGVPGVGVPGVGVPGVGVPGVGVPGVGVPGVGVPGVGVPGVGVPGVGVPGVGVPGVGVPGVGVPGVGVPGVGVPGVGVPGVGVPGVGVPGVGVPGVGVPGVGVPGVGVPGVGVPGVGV
# B1: Biopolymer 4 (371 amino acids), structure B14-A2-B14 (other)
# chain: MESLLPVPGVGVPGVGVPGVGVPGVGVPGVGVPGVGVPGVGVPGVGVPGVGVPGVGVPGVGVPGVGVPGVGVPGVGVPGIGVPGIGVPGIGVPGIGVPGIGVPGIGVPGIGVPGIGVPGIGVPGIGAVTGRGDSPASSVPGIGVPGIGVPGIGVPGIGVPGIGVPGIGVPGIGVPGIGVPGIGVPGIGVPGIGVPGIGVPGIGVPGIGVPGIGVPGIGVPGIGVPGIGVPGIGVPGIGAVTGRGDSPASSVPGIGVPGIGVPGIGVPGIGVPGIGVPGIGVPGIGVPGIGVPGIGVPGIGVPGVGVPGVGVPGVGVPGVGVPGVGVPGVGVPGVGVPGVGVPGVGVPGVGVPGVGVPGVGVPGVGVPGVGV
# notes: Unmodified polymer 4, adsorbed from aqueous solution onto the surface grafted with polymer 3'; also called POLYM
# Molecular target: T1, Modified biopolymer 3' (biopolymer 3, …)
# Assay: ToF-SIMS of a glass surface grafted with polymer 3' after immersion in an aqueous solution of polymer 4
binder,measurement,value
B1,binding result,binds
